Legend:
[1] = test system: Rhesus monkeys; test: anticoagulatory effect following intravenous administration to Rhesus monkeys; assay type: in vivo
Description: Amino acid analysis of the product conforms with the composition which is to be expected from the amino acid sequence. Edman sequence analysis indicates 2 N-terminal amino acid residues Leu(1) and Asn(37).

[2] = target: recombinantly obtained desulfato-Tyr63 hirudin (leech (Hirudo medicinalis), made recombinantly in yeast cells)

(hirudin 1-63)-Thr(64)-Arg(65)-Arg(66)--OH [Example 3]
anticoagulatory effect (activity compared with starting hirudin) ([1]; intravenous administration to Rhesus monkeys (1 mg/kg), test conditions per Jurgens 1952): virtually identical to that of the starting hirudin

chymotrypsin (Merck, Darmstadt) (enzyme)
transpeptidation at Tyr63; composition of the crude product by analytical HPLC [2]: 65.2%

B1: (hirudin 1-36)-Thr, (hirudin 37-65) (protein)
chain 1: LTYTDCTESGQNLCLCEGSNVCGQGNKCILGSDGEKT
chain 2: NQCVTGEGTPKPQSHNDGDFEEIPEEYLQ
anticoagulatory effect (activity compared with starting hirudin) ([1]; intravenous administration to Rhesus monkeys, dose not given): virtually identical to that of the starting hirudin

From patent US5674838A, “Hirudin derivatives and a process for their preparation” (Hoechst Aktiengesellschaft, priority 1994, dated 1997)
